Source: publication PMC3101595 (The Journal of Cell Biology, 2010)

T1: 6His-Flag-DIAP1 (Drosophila, UniProt Q24306 1-438)
T1 sequence (looked up): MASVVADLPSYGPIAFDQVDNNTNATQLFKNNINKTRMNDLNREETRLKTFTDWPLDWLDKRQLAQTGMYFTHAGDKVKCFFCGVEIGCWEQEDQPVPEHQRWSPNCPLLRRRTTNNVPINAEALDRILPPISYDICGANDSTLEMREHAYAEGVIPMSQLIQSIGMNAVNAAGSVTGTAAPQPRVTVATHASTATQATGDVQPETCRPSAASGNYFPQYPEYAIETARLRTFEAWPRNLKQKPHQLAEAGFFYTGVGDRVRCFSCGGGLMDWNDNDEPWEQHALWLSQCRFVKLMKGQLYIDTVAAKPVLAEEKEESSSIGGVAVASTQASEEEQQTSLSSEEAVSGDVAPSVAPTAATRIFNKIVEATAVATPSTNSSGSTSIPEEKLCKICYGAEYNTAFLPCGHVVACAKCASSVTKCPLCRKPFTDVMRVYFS


Experiments:
cross-linking = target: the molecule itself; experiment: cross-linking
6His-Flag-DIAP1 = target: T1, 6His-Flag-DIAP1; experiment: co-IP

Binder	binding result (cross-linking)	binding result (6His-Flag-DIAP1)
HidΔMTS-His6 (domain or fragment, Drosophila, UniProt Q24106 1-386, looked up) MAVPFYLPEGGADDVASSSSGASGNSSPHNHPLPSSASSSVSSSGVSSASASSASSSSSASSDGASSAASQSPNTTTSSATQTPMQSPLPTDQVLYALYEWVRMYQSQQSAPQIFQYPPPSPSCNFTGGDVFFPHGHPNPNSNPHPRTPRTSVSFSSGEEYNFFRQQQPQPHPSYPAPSTPQPMPPQSAPPMHCSHSYPQQSAHMMPHHSAPFGMGGTYYAGYTPPPTPNTASAGTSSSSAAFGWHGHPHSPFTSTSTPLSAPVAPKMRLQRSQSDAARRKRLTSTGEDEREYQSDHEATWDEFGDRYDNFTAGRERLQEFNGRIPPRKKKSSNSHSSSSNNPVCHTDSQPGGTSQAESGAIHGHISQQRQVERERQKAKAEKKKP	binds	binds
Rpr-His6 (natural protein, Drosophila, UniProt Q24475 1-65, looked up) MAVAFYIPDQATLLREAEQKEQQILRLRESQWRFLATVVLETLRQYTSCHPKTGRKSGKYRKPSQ	binds	–
